Read-outs that look alike come from different tables or passages of the source.
Assays:
[1] = molecular target: 3,4-ketoisomerase domain of FdtD from Shewanella denitrificans (Shewanella denitrificans); experiment: crystal structure
[2] = molecular target: 3,4-ketoisomerase domain of FdtD (Shewanella denitrificans, UniProt Q12KT8); experiment: X-ray crystal structure, […] A; type: binding; conditions: crystal soaked with 3 mM ligand, pH 7; active site, substrate analogue
QdtA = QdtA (Thermoanaerobacterium thermosaccharolyticum, UniProt Q6TFC5, Y17R/R97H); experiment: X-ray crystal structure, […] A; type: binding; conditions: dTDP co-purified from E. coli, not added; pH 6; active site
purified protein [3] = substrate: Cc1cn([C@H]2C[C@H](O)[C@@H](COP(=O)(O)OP(=O)(O)O[C@H]3O[C@H](C)C(=O)[C@H](O)[C@H]3O)O2)c(=O)[nH]c1=O; experiment: purified protein; conditions: 50 mM HEPES pH 7.5, 0.2 mM NADPH, 1 mg/mL KijD10
purified protein [4] = substrate: Cc1cn([C@H]2C[C@H](O)[C@@H](COP(=O)(O)OP(=O)(O)O[C@H]3O[C@H](C)C(=O)[C@H](O)[C@H]3O)O2)c(=O)[nH]c1=O; experiment: purified protein; type: biochemical, Thermoanaerobacterium thermosaccharolyticum; conditions: 50 mM HEPES pH 7.5, 0.2 mM NADPH, 1 mg/mL KijD10
crystal structure [5] = molecular target: the molecule itself; experiment: crystal structure
crystal structure [6] = molecular target: the molecule itself; experiment: crystal structure; remark: listed apart in the source
purified protein [7] = substrate: Cc1cn([C@H]2C[C@H](O)[C@@H](COP(=O)(O)OP(=O)(O)O[C@H]3O[C@H](C)C(=O)[C@H](O)[C@H]3O)O2)c(=O)[nH]c1=O; experiment: purified protein; type: biochemical, Shewanella denitrificans; conditions: 50 mM HEPES pH 7.5, 0.2 mM NADPH, 1 mg/mL KijD10

For “3,4-ketoisomerase domain of FdtD from Shewanella denitrificans (domain or fragment)”, the stoichiometry N [1] was 2.

`Cc1cn([C@H]2C[C@H](O)[C@@H](COP(=O)(O)OP(=O)(O)O[C@H]3O[C@H](C)[C@@H](NC=O)[C@H](O)[C@H]3O)O2)c(=O)[nH]c1=O` [dTDP-4,6-dideoxy-4-formamido-glucose] was tested, and the “X-ray crystal structure, 1.7 A” value [2] was “structure of the enzyme was solved in the presence of dTDP-4,6-dideoxy-4-formamido-D-glucose”.

In the case of `Cc1cn([C@H]2C[C@H](O)[C@@H](COP(=O)(O)OP(=O)(O)O)O2)c(=O)[nH]c1=O` [dTDP], the “X-ray crystal structure, 2.3 A” value (QdtA) is reported as “Observed electron density for the dTDP moiety bound to the QdtA Y17R/R97H mutant enzyme”.

B1: QdtA (Thermoanaerobacterium thermosaccharolyticum; Y17R) (protein)
chain: MLYNVALIKFKDIADKRGHLTPIEGKIDIPFDIKRVYYITKVDKDITRGYHAHKKLHQVLICLNGSVKIRLKIPDEEKIIELNDPSVGLYIGPFLWREMFDFTEGCVLLVLASEYCDETDYIRNYDFYIDEAKKRF
In the case of B1, the Km (purified protein [3]) is reported as 370 ± 60 µM.

B2: QdtA from Thermoanaerobacterium thermosaccharolyticum, wild-type apoenzyme (enzyme)
chain: MLYNVALIKFKDIADKYGHLTPIEGKIDIPFDIKRVYYITKVDKDITRGYHAHKKLHQVLICLNGSVKIRLKIPDEEKIIELNDPSVGLYIGPFLWREMFDFTEGCVLLVLASEYCDETDYIRNYDFYIDEAKKRF
B2 gave a Km (purified protein [4]) of 140 ± 10 µM, a kcat (purified protein [4]) of 3.85 ± 0.25 s⁻¹ and a kcat/Km (purified protein [4]) of 28000 M⁻¹ s⁻¹. The “stoichiometry N” value (crystal structure [5]) was 2.

B3: QdtA (Thermoanaerobacterium thermosaccharolyticum; Y37F) (protein)
chain: MLYNVALIKFKDIADKYGHLTPIEGKIDIPFDIKRVFYITKVDKDITRGYHAHKKLHQVLICLNGSVKIRLKIPDEEKIIELNDPSVGLYIGPFLWREMFDFTEGCVLLVLASEYCDETDYIRNYDFYIDEAKKRF
Molecule B3 has a Km (purified protein [4]) of 34 ± 7 µM, a kcat (purified protein [4]) of 0.023 ± 0.004 s⁻¹ and a kcat/Km (purified protein [4]) of 690 M⁻¹ s⁻¹.

B4: QdtA (Thermoanaerobacterium thermosaccharolyticum; R97H) (protein)
chain: MLYNVALIKFKDIADKYGHLTPIEGKIDIPFDIKRVYYITKVDKDITRGYHAHKKLHQVLICLNGSVKIRLKIPDEEKIIELNDPSVGLYIGPFLWHEMFDFTEGCVLLVLASEYCDETDYIRNYDFYIDEAKKRF
In the case of B4, the Km (purified protein [4]) is reported as 61 ± 9 µM, the kcat (purified protein [4]) is reported as 0.4 ± 0.06 s⁻¹ and the kcat/Km (purified protein [4]) is reported as 6500 M⁻¹ s⁻¹.

B5: QdtA Y17R/R97H double mutant from Thermoanaerobacterium thermosaccharolyticum (enzyme)
chain: MLYNVALIKFKDIADKRGHLTPIEGKIDIPFDIKRVYYITKVDKDITRGYHAHKKLHQVLICLNGSVKIRLKIPDEEKIIELNDPSVGLYIGPFLWHEMFDFTEGCVLLVLASEYCDETDYIRNYDFYIDEAKKRF
B5 was tested, and the Km (purified protein [3]) was 21 ± 5 µM and the “stoichiometry N” value (crystal structure [6]) was 2.

B6: 3,4-ketoisomerase domain of FdtD (Shewanella denitrificans OS217) (protein)
chain: SNNFELKLQMSKVKGVSLHKFHLVNDLRGNLSVGEFEKDIPFTPKRYFTVFGVPNKEVRGEHAHKECKQFLICVSGNCSVLVDDGENREEYVLDSIDKGIYLPPMTWGVQYKYSKDAVLLVFASHYYDSDDYIRDYSTFKQMRQN
Molecule B6 has a Km (purified protein [7]) of 790 ± 120 µM, a kcat (purified protein [7]) of 4.85 ± 0.56 s⁻¹ and a kcat/Km (purified protein [7]) of 6100 M⁻¹ s⁻¹.

— PMC5095699 (Biochemistry, 2015)
